The series is described as follows: yeast display, Sf9 membrane polyspecificity reagent, FACS + sequencing; frameworks hold sequencing errors. Summed up: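 Galactose-induced (36–48 hours) yeast carrying a synthetic nanobody display library were exposed to 10% biotinylated, detergent-solubilized Sf9 membrane reagent at 4 °C for 1 hour. FACS followed streptavidin microbead enrichment, using low and high (top ~1%) gates for expression (anti-HA) and reagent binding (streptavidin). Colony PCR, MiSeq 2 × 250 sequencing and CDR-length filtering followed. Labels for polyreactivity reflect the gate of origin.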
Regarding “QVQLVESGGGLVQAGGSLRLSCAASGFTFDSYAMGWYRQAPGNDRELVAAISYRGGSTYYADSVKGRFSISRDNAKNTVYLQMNSLKPEDTAVFYCAARSPSAAYGSYGVYSWGQGTQVTVSS”, the “polyreactivity (PSR sort gate)” value was “high polyreactivity”.

Consider “QVQLVESGGGLVQAGGSLRLSCAASGFTFDTNAMGWYRPAPGKERELVAAISRIGGRTYADSVKGRFTISRDNAKNTVYLQMNSLKPEDTAVYYCAADTTWYPYGYDSWGQGTQVTVSS”, for which the “polyreactivity (PSR sort gate)” value was “low polyreactivity”.

Regarding “QVQLVESGGGLVQAGGSLRLSCAASGFTFDWYAMGWYRQAPGKERELVAAISSSGRTNYADSVKGRFTISRDNAKNTVYLQMNSLKPEDTAVYYCNRDYPYIWHKGARYWHENDYWGQGTQVTVSS”, the “polyreactivity (PSR sort gate)” value was “low polyreactivity”.

For “QVQLVESGGGLVQAGGSLRLSCAASGFTFDYNAMGWSRQAPGKERELVAVISSSGSRTYYADSVKGRFTISRDNAKNTVYLQMNSLKPEDTAVYYCAAARIGTRDYWGQGTQVTVSS”, the “polyreactivity (PSR sort gate)” value is “high polyreactivity”.

“QVQLVESGGGLVQAGGSLRLSCAASGFTFDYYAMGWYRQAPGKERELVAAISSSGGSTYYADSVKGRFTISRDNAKNTVYLQMNSLKPADTAVYYCGTGHSKKYDYWGQGTQVTVSS”: the “polyreactivity (PSR sort gate)” value is “high polyreactivity”.

Take “QVQLVESGGGLVQAGGSLRLSCAASGFTFDYYAMGWYRQAPGKERELVATITSGGRTNYADSVKGRFTLSRDNAKNTVYLQMNSLNPEDTAVYYCAVDWWNVEYFYSATSGDYWGQGTQVTVSS”: the “polyreactivity (PSR sort gate)” value is “low polyreactivity”.

As to “QVQLVESGGGLVQAGGSLRLSCAASGFTFEGYAMGWYRQAPGKERELVAAISYSGSSTYYADSVKGRFTISRDNAKNTVYLQMNSLKPEDTAVYYCNARRHWYSAWGYDYWGQGTQVTVSS”, the “polyreactivity (PSR sort gate)” value is listed as “high polyreactivity”.

With “QVQLVESGGGLVQAGGSLRLSCAASGFTFEKNAMGWYGQAPGKERELVAAISRGGSTYADSVKGRFTISRDNAKTTVDLQMNSLKPEDTAVYYCAADTVYIFSSAINGEFGYWGQGTQVTVSS”, the “polyreactivity (PSR sort gate)” value is recorded as “low polyreactivity”.

Consider “QVQLVESGGGLVQAGGSLRLSCAASGFTFERYAMGWYRQAPGKERELVAAITGSGGSTYYADSVKGRFTISRDNAKTTVYLQMNSLKPEDTAVYYCADYSAYYGCDYWGQGTQVTVSS”, for which the “polyreactivity (PSR sort gate)” value is on record as “low polyreactivity”.

Turning to “QVQLVESGGGLVQAGGSLRLSCAASGFTFERYTMGWYRPAPGKERELVATISRRSGRTSYADSVKGRFTISRDNAKNTVYLQMNSLKPEDTAVYYCAVDDAYPDRYDYWGQGTQVTVSS”, the “polyreactivity (PSR sort gate)” value is reported as “high polyreactivity”.

In the case of “QVQLVESGGGLVQAGGSLRLSCAASGFTFERYTMGWYRQAPGKERELVATISRRSGRTSYADSVKGRFTISRDNAKNSVYLQMNSLKPEDTAVYYCAVDDAYPDRYDYWGQGTQVTVSS”, the “polyreactivity (PSR sort gate)” value is “high polyreactivity”.

Regarding “QVQLVESGGGLVQAGGSLRLSCAASGFTFERYTMGWYRQAPGKERELVATISRRSGRTSYADSVKGRFTISRDNAKNTVYLQMNSLKPEDTAVYYCAVDDAYPDRYDYWGQGTQVTVSS”, the “polyreactivity (PSR sort gate)” value is listed as “high polyreactivity”.

Turning to “QVQLVESGGGLVQAGGSLRLSCAASGFTFESNAMGWYRQAPGKERELVAAITSSGGRTYYADSVKGRFTISRDNAKNTVYLQMNSLKPEDTAVYYCAATGKAPRESGGVYSMDWGQGTQVTVSS”, the “polyreactivity (PSR sort gate)” value was “low polyreactivity”.

Turning to “QVQLVESGGGLVQAGGSLRLSCAASGFTFEVYAMGWYIQAPGKERELVAAITSSGGRTYYADSVKGRFTISRDNAKNTVYLQMNSLKPEDTAVYYCNARSKQPVYPYVQSLNYWGQGTQVTVSS”, the “polyreactivity (PSR sort gate)” value is reported as “high polyreactivity”.

In the case of “QVQLVESGGGLVQAGGSLRLSCAASGFTFEYNALGWYRQAPGKERELVAAISSGGRTNYADSVKGRFTISRDNAKNTVYLQMNSLKPEDTAVYYCAKRLGVRPAFYYWGQGTLVTVSS”, the “polyreactivity (PSR sort gate)” value is on record as “high polyreactivity”.

Regarding “QVQLVESGGGLVQAGGSLRLSCAASGFTFEYNAMGWYRQAPGKERELVAVITYRGGSTYYADSVKGRFTISRDHAKNTVYLQMNSLKPEDTAVYYCAARLSSNYWGLKRWGYGYWGQGTQVTVSS”, the “polyreactivity (PSR sort gate)” value is “high polyreactivity”.

For “QVQLVESGGGLVQAGGSLRLSCAASGFTFEYYAMGWFRQAPGKERELVATITSGGSTYYADSVKGRFTISRDNAKNTVYLQMNSLKPEDTAVYDCNTSSPWIEDYWGQGTQVTVSS”, the “polyreactivity (PSR sort gate)” value is “low polyreactivity”.

Turning to “QVQLVESGGGLVQAGGSLRLSCAASGFTFEYYAMGWYRQAPGKERELVAAIDTGGSTNYADSVKGRFTISRDNAKNTVYLQMNSLKPEDTAVYYCAADWSWWDGEDYHFEYDYWGQGTQVTVSS”, the “polyreactivity (PSR sort gate)” value is “low polyreactivity”.

Regarding “QVQLVESGGGLVQAGGSLRLSCAASGFTFEYYPMGWYRQAPGKERELVADITTSSAGTYYADSVKGRFTISRDNAKNTFYLQMNSLKPEDTAVYYCNRDALNTGEDLDYWGQGTQVSVSS”, the “polyreactivity (PSR sort gate)” value is “low polyreactivity”.

As for “QVQLVESGGGLVQAGGSLRLSCAASGFTFFHYAMGWYRQAPGKERELVAAINTRGSRTYYADSVKGRFTISRDNAKNTVYLQMNSLKPEDNAVYYCAAEDYWYDFDYWGQGTQVTVSS”, the “polyreactivity (PSR sort gate)” value is reported as “high polyreactivity”.

As to “QVQLVESGGGLVQAGGSLRLSCAASGFTFFIYVMGWYRQAPGKEREFVAAISSSGDSTYYADSVKGRFTISRDNAKNTVYLQMNSLKPEDTAVYYCAADRIRDLEFDYWGQGTQVTVSS”, the “polyreactivity (PSR sort gate)” value was “low polyreactivity”.

Consider “QVQLVESGGGLVQAGGSLRLSCAASGFTFFLYAMGWYRQAPGKEMELVAAIHSRGGSTYYADSVKGRFTISRDNAKNTVSLQMNSLKPEDTAVYYCAAYIPRSSWGYDYWGQGTQVTVSS”, for which the “polyreactivity (PSR sort gate)” value is given as “high polyreactivity”.

For the sequence “QVQLVESGGGLVQAGGSLRLSCAASGFTFFNYAMAWYRQAPGKERELVAAISSNGGRTYYADSVKGRFTISRDNAKNTVYLQMNSLKPEDTAVYYCATLYYGRVDYDYWGQGTQVTVSS”, the “polyreactivity (PSR sort gate)” value was “high polyreactivity”.

“QVQLVESGGGLVQAGGSLRLSCAASGFTFFRYAMGWYRQAPGKERELVAAISWSGGRTYYADSVKGRFTISRDNAKNTVYLQMNSLKPEDTAVYYCAVDYYRSGLHYDSWGQGTQVTVSS”: the “polyreactivity (PSR sort gate)” value was “high polyreactivity”.

“QVQLVESGGGLVQAGGSLRLSCAASGFTFFRYAMGWYRQAPGKERELVATITSGGTTNYADSVKGRFTISRDNAKNTVYLQMNSLKPEDTAVYYCAARTYPSYYVTFEYWGQGTQVTVSS”: the “polyreactivity (PSR sort gate)” value was “low polyreactivity”.

On to “QVQLVESGGGLVQAGGSLRLSCAASGFTFFSNAMGWYRQAPGKDRELVAAITSSGGSTYADSVKGRFTISRDNAKNTVYLQMNSLKPEDTAVYYCAADAQAPPCGFKEYDYWGQGTQVTVSS”, for which the “polyreactivity (PSR sort gate)” value is “low polyreactivity”.

“QVQLVESGGGLVQAGGSLRLSCAASGFTFFSYAMGWYRQAPGKERELVATITWSGGTYYADSVKGRFTISRDNAKNTVYVQMNSLKPEDTAVYYCNARRHYRRYSYRHNYWGQGTQVTVSS”: the “polyreactivity (PSR sort gate)” value is recorded as “high polyreactivity”.

For “QVQLVESGGGLVQAGGSLRLSCAASGFTFFTNAMGWYRQAPGKERELVATITSNGSTNYADSVKGRFTISRDNAKNTVYLQMISLKPEDTAVYYCAADQDSVSMDYWGQGTQVTVSS”, the “polyreactivity (PSR sort gate)” value is “low polyreactivity”.

For the sequence “QVQLVESGGGLVQAGGSLRLSCAASGFTFFTYAMGWYRQAPGKDRQLVAAITTGGSTNYADSVKGRFTISRDNAKINVYLEMNSLKPEDTAVYYCAAQRVSVLLFVRHDYWGQGTQVTVSS”, the “polyreactivity (PSR sort gate)” value was “low polyreactivity”.

As for “QVQLVESGGGLVQAGGSLRLSCAASGFTFFVYAMGWYRQAPGKEREGVAVITSGGTTNYADSVKGRFTISRDNAKNTVYLQMNSLKPEDTAVYYCATDNGGIPKYVPYDYWGQGTQVTVSS”, the “polyreactivity (PSR sort gate)” value is given as “high polyreactivity”.

“QVQLVESGGGLVQAGGSLRLSCAASGFTFFWYAMGWYRQAPGKERELVAGITYRGGSTYYADSVKGRFTISRDNAKNTVYLQMNSLKPEDTAVYYCNADVVTKHISAWWDRYYRRYYYWGQGTQVTVSS”: the “polyreactivity (PSR sort gate)” value is listed as “low polyreactivity”.

For the sequence “QVQLVESGGGLVQAGGSLRLSCAASGFTFFYNAMGWYSQAPGKESELVASITVSTSGTDYADSVKGRFTISRDNAKNTVYLQMNSLKPEDTAVYYCATDLVFVYSDLQDTAYYWGQGTQVTVSS”, the “polyreactivity (PSR sort gate)” value was “low polyreactivity”.

Turning to “QVQLVESGGGLVQAGGSLRLSCAASGFTFGANDMGRYIQAPGKERELVATISSSGGTTYYADSVKGRFTISRDNAKYTVYLQMNSLKPEDTAVYYCAAKGLFTGRVSRYADDHWGQGTEVTVSS”, the “polyreactivity (PSR sort gate)” value is recorded as “low polyreactivity”.

Regarding “QVQLVESGGGLVQAGGSLRLSCAASGFTFGAYAMGWSRQAPGKERELVASISWSGGSTYYADSVKGRFTISRDNAKNTVYLQMNSLKPEDTAVYDCNKDFVYPDDDGLFDYWGQGTQVTVSS”, the “polyreactivity (PSR sort gate)” value is “low polyreactivity”.

“QVQLVESGGGLVQAGGSLRLSCAASGFTFGAYARGWYRQAPGKERELVAAISSRGGSTYYADSVKGRFTISRDNAKNTVYLQKNSLKPEDTAVYYCAANSYRRTGYNYWGQGTQVSVSS”: the “polyreactivity (PSR sort gate)” value was “high polyreactivity”.

“QVQLVESGGGLVQAGGSLRLSCAASGFTFGGNARGWYRQAPGKERELVAAIRRGGSTNYADSVKGRFTISRDNAKNTVYLQMNSLKPEDTAVYYCARDYRSYTGSYDTSYDYWGQGTQVTVSS”: the “polyreactivity (PSR sort gate)” value is “high polyreactivity”.

Consider “QVQLVESGGGLVQAGGSLRLSCAASGFTFGGYAMGWYRQAPGKERDLVAAITGSGGNTIYADSVKGRFTISRDNAKNTFYLQINSLKPDDTAVYYCNARYTSHTHADCVYLFDYWGQGTQVNVSS”, for which the “polyreactivity (PSR sort gate)” value is reported as “low polyreactivity”.

In the case of “QVQLVESGGGLVQAGGSLRLSCAASGFTFGHYAMGWYRQAPGIERELVAAISRSGGTTSYADSVKGRFTISRDNAKNTVYLQMNSLKPEDTAVYYCNKDYIWARYGGGRDYWGQGTQVTVSS”, the “polyreactivity (PSR sort gate)” value is listed as “low polyreactivity”.

For the sequence “QVQLVESGGGLVQAGGSLRLSCAASGFTFGHYAMGWYRQAPGKERELVAAISIDGGRTYYADSVKGRFTISRDNAKNTVYLQMNSLKPEDTAVYYCAVPRWVYYTSDYDYWGQGTQVTVSS”, the “polyreactivity (PSR sort gate)” value is recorded as “high polyreactivity”.

Turning to “QVQLVESGGGLVQAGGSLRLSCAASGFTFGINAMGWYRQAPGQERELVASISSGSSTTYADSVKGRFTISRDNAKNTVYLQMNSLKPEDTAVYYCNARPFHIYWRYDYWGQGTQLTVSS”, the “polyreactivity (PSR sort gate)” value was “low polyreactivity”.

The record behind these values is the nanobody polyreactivity screen of Harvey et al. (2022).
